# Source: paper PMC5829645
# Legend:
# [1] = molecular target: T1, BmILF (interleukin enhancer binding factor homolog) (Bombyx mori (Bm12 cell cDNA), UniProt A0A1U9WZ16 1-382); assay: EMSA
# T1 sequence: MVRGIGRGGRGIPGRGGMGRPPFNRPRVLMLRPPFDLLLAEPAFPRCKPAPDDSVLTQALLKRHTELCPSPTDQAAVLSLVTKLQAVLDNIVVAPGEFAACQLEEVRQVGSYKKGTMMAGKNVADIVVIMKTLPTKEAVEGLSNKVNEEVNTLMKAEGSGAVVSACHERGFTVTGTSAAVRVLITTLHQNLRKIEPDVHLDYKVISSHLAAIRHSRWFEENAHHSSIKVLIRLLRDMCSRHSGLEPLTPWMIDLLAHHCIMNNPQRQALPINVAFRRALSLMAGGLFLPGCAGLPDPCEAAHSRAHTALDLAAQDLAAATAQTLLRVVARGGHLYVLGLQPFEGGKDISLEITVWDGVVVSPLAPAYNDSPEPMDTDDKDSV
# [2] = molecular target: T1, BmILF (interleukin enhancer binding …); assay: competition
# [3] = molecular target: T1, BmILF (interleukin enhancer binding …); assay: EMSA; remark: listed apart in the source
binder,measurement,setting,value
TTGTTGCCCCGCCCCTCGGCCCCCTCGCGCCCCGCACTGG (structured_DNA) [BmPOUM2 i-motif wild-type probe],binding result,[1],binds
TTGTTGCCCCGCCCCTCGGCCCCCTCGCGCCCCGCACTGG (structured_DNA) [unlabeled wild-type i-motif cold probe],binding result,[2],binds
TTGTTGCACTGCTACTCGGCTCACTCGCGCATCGCACTGG (ssDNA) [BmPOUM2 i-motif mutant probe],binding result,[3],no binding
